Experimental data published in patent US20190309059A1 (SHANGHAI PHARMAEXPLORER, published 2019).
Where “and” joins values, the source holds several entries; their conditions need not be identical. Identical values can stand only once.

How the values were obtained:
[1] = biological target: his-labeled human IL-13 (immunogen A) (human) (UniProt P35225); assay: FACS blocking, biotin-IL-13 on IL-13Ra2 HEK293 cells; antibody at 6.67 nM
[2] = biological target: his-labeled human IL-13R130Q variant (human) (UniProt P35225); assay: ELISA, IL-13R130Q variant; antibody at 2.67 nM
[3] = biological target: his-labeled human IL-13 (immunogen A) (human) (UniProt P35225); assay: FACS blocking, biotin-IL-13 on IL-13Ra1/IL-4Ra HEK293 cells; antibody at 0.27 nM
[4] = biological target: his-labeled human IL-13 (immunogen A) (human) (UniProt P35225); assay: FACS blocking, biotin-IL-13 on IL-13Ra2 HEK293 cells; antibody at 1.33 nM
[5] = biological target: his-labeled human IL-13 (immunogen A) (human) (UniProt P35225); assay: FACS blocking, biotin-IL-13 on IL-13Ra1/IL-4Ra HEK293 cells; antibody at 0.05 nM
[6] = biological target: his-labeled human IL-13 (immunogen A) (human) (UniProt P35225); assay: FACS blocking, biotin-IL-13 on IL-13Ra1/IL-4Ra HEK293 cells; antibody at 33.33 nM
[7] = biological target: his-labeled human IL-13R130Q variant (human) (UniProt P35225); assay: ELISA, IL-13R130Q variant; antibody at 0.11 nM
[8] = biological target: his-labeled human IL-13 (immunogen A) (human) (UniProt P35225); assay: FACS blocking, biotin-IL-13 on IL-13Ra1/IL-4Ra HEK293 cells; antibody at 0.002 nM
[9] = biological target: his-labeled human IL-13 (immunogen A) (human) (UniProt P35225); assay: FACS blocking, biotin-IL-13 on IL-13Ra2 HEK293 cells; antibody at 0.27 nM
[10] = biological target: his-labeled human IL-13 (immunogen A) (human) (UniProt P35225); assay: FACS blocking, biotin-IL-13 on IL-13Ra1/IL-4Ra HEK293 cells; antibody at 1.33 nM
[11] = biological target: his-labeled human IL-13 (immunogen A) (human) (UniProt P35225); assay: FACS blocking, biotin-IL-13 on IL-13Ra1/IL-4Ra HEK293 cells; antibody at 0.01 nM
[12] = biological target: cynomolgus IL-13 (purchased from sino biological) (cynomolgus) (UniProt Q0PW92); assay: ELISA, cynomolgus IL-13; antibody at 0.021 nM
[13] = biological target: his-labeled human IL-13 (immunogen A) (human) (UniProt P35225); assay: FACS blocking, biotin-IL-13 on IL-13Ra2 HEK293 cells; antibody at 0.01 nM
[14] = biological target: cynomolgus IL-13 (purchased from sino biological) (cynomolgus) (UniProt Q0PW92); assay: ELISA, cynomolgus IL-13; antibody at 0.004 nM
[15] = biological target: his-labeled human IL-13 (immunogen A) (human) (UniProt P35225); assay: cell-based or functional assay
[16] = biological target: his-labeled human IL-13R130Q variant (human) (UniProt P35225); assay: ELISA, IL-13R130Q variant; antibody at 0.004 nM
[17] = biological target: his-labeled human IL-13 (immunogen A) (human) (UniProt P35225); assay: FACS blocking, biotin-IL-13 on IL-13Ra1/IL-4Ra HEK293 cells; antibody at 166.67 nM
[18] = biological target: his-labeled human IL-13 (immunogen A) (human) (UniProt P35225); assay: ELISA, biotin-immunogen A; antibody at 0.02 nM
[19] = biological target: his-labeled human IL-13 (immunogen A) (human) (UniProt P35225); assay: FACS blocking, biotin-IL-13 on IL-13Ra2 HEK293 cells; antibody at 33.33 nM
[20] = biological target: his-labeled human IL-13 (immunogen A) (human) (UniProt P35225); assay: FACS blocking, biotin-IL-13 on IL-13Ra2 HEK293 cells; antibody at 0.05 nM
[21] = biological target: cynomolgus IL-13 (purchased from sino biological) (cynomolgus) (UniProt Q0PW92); assay: ELISA, cynomolgus IL-13; antibody at 0.53 nM
[22] = biological target: his-labeled human IL-13 (immunogen A) (human) (UniProt P35225); assay: FACS blocking, biotin-IL-13 on IL-13Ra2 HEK293 cells; antibody at 166.67 nM
[23] = biological target: his-labeled human IL-13 (immunogen A) (human) (UniProt P35225); assay: FACS blocking, biotin-IL-13 on IL-13Ra1/IL-4Ra HEK293 cells; antibody at 6.67 nM
[24] = biological target: his-labeled human IL-13R130Q variant (human) (UniProt P35225); assay: ELISA, IL-13R130Q variant; antibody at 13.33 nM
[25] = biological target: his-labeled human IL-13 (immunogen A) (human) (UniProt P35225); assay: FACS blocking, biotin-IL-13 on IL-13Ra2 HEK293 cells; antibody at 0.002 nM
[26] = biological target: his-labeled human IL-13 (immunogen A) (human) (UniProt P35225); assay: ELISA, biotin-immunogen A; antibody at 0.11 nM
[27] = biological target: cynomolgus IL-13 (purchased from sino biological) (cynomolgus) (UniProt Q0PW92); assay: ELISA, cynomolgus IL-13; antibody at 66.7 nM
[28] = biological target: cynomolgus IL-13 (purchased from sino biological) (cynomolgus) (UniProt Q0PW92); assay: ELISA, cynomolgus IL-13; antibody at 2.67 nM

his-labeled human IL-13R130Q variant (human), sequence (P35225 other isoform, or with tags, fused parts or gaps mutant): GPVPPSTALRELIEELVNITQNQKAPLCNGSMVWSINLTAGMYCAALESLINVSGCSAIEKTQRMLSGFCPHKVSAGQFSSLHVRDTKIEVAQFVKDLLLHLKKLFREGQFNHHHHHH
cynomolgus IL-13 (purchased from sino biological) (cynomolgus), sequence (Q0PW92 entry or part of it): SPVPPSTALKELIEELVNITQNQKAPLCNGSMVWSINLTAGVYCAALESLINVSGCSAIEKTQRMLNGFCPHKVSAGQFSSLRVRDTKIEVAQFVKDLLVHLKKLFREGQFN

IgG control (mouse IgG) (antibody)
mean fluorescence intensity [1]: 77.2 | OD450 nm [2]: 0.06 | mean fluorescence intensity [3]: 67.9 | mean fluorescence intensity [4]: 80.7 | mean fluorescence intensity [5]: 68.9 | mean fluorescence intensity [6]: 22.1 | OD450 nm [7]: 0.06 | mean fluorescence intensity [8]: 72 | mean fluorescence intensity [9]: 78.9 | mean fluorescence intensity [10]: 37.5 | mean fluorescence intensity [11]: 72.4 | OD450 nm [12]: 0.07 | mean fluorescence intensity [13]: 83.2 | OD450 nm [14]: 0.07 | Periostin (pg/mL), MRCS cells + IL-13 5 ng/mL; control antibody at 0.0002 nM [15]: 6350 pg/mL | Periostin (pg/mL), MRCS cells + IL-13 5 ng/mL; control antibody at 0.001 nM [15]: 4760 pg/mL | Periostin (pg/mL), MRCS cells + IL-13 5 ng/mL; control antibody at 0.004 nM [15]: 4290 pg/mL | Periostin (pg/mL), MRCS cells + IL-13 5 ng/mL; control antibody at 0.021 nM [15]: 4010 pg/mL | Periostin (pg/mL), MRCS cells + IL-13 5 ng/mL; control antibody at 0.11 nM [15]: 3830 pg/mL | Periostin (pg/mL), MRCS cells + IL-13 5 ng/mL; control antibody at 0.53 nM [15]: 4920 pg/mL | Periostin (pg/mL), MRCS cells + IL-13 5 ng/mL; control antibody at 2.67 nM [15]: 5740 pg/mL | Periostin (pg/mL), MRCS cells + IL-13 5 ng/mL; control antibody at 13.3 nM [15]: 6240 pg/mL | TARC (pg/mL), A549 cells + IL-13 5 ng/mL + TNFα; control antibody at 0.001 nM [15]: 2010 pg/mL | TARC (pg/mL), A549 cells + IL-13 5 ng/mL + TNFα; control antibody at 0.004 nM [15]: 1720 pg/mL | TARC (pg/mL), A549 cells + IL-13 5 ng/mL + TNFα; control antibody at 0.021 nM [15]: 1740 pg/mL | TARC (pg/mL), A549 cells + IL-13 5 ng/mL + TNFα; control antibody at 0.11 nM [15]: 1650 pg/mL | TARC (pg/mL), A549 cells + IL-13 5 ng/mL + TNFα; control antibody at 0.5 nM [15]: 1640 pg/mL | TARC (pg/mL), A549 cells + IL-13 5 ng/mL + TNFα; control antibody at 2.7 nM [15]: 1720 pg/mL | TARC (pg/mL), A549 cells + IL-13 5 ng/mL + TNFα; control antibody at 13.3 nM [15]: 1800 pg/mL | TARC (pg/mL), A549 cells + IL-13 5 ng/mL + TNFα; control antibody at 66.7 nM [15]: 1870 pg/mL | TARC (pg/mL), A549 cells + IL-13 + TNFα; control antibody at 0.001 nM [15]: 3120 pg/mL | TARC (pg/mL), A549 cells + IL-13 + TNFα; control antibody at 0.001 nM (part 2, with hP4 4H12) [15]: 2920 pg/mL | TARC (pg/mL), A549 cells + IL-13 + TNFα; control antibody at 0.004 nM [15]: 2980 pg/mL | TARC (pg/mL), A549 cells + IL-13 + TNFα; control antibody at 0.004 nM (part 2, with hP4 4H12) [15]: 2560 pg/mL | TARC (pg/mL), A549 cells + IL-13 + TNFα; control antibody at 0.021 nM [15]: 3000 pg/mL | TARC (pg/mL), A549 cells + IL-13 + TNFα; control antibody at 0.021 nM (part 2, with hP4 4H12) [15]: 2580 pg/mL | TARC (pg/mL), A549 cells + IL-13 + TNFα; control antibody at 0.11 nM [15]: 2780 pg/mL | TARC (pg/mL), A549 cells + IL-13 + TNFα; control antibody at 0.11 nM (part 2, with hP4 4H12) [15]: 2570 pg/mL | TARC (pg/mL), A549 cells + IL-13 + TNFα; control antibody at 0.5 nM (part 2, with hP4 4H12) [15]: 2580 pg/mL | TARC (pg/mL), A549 cells + IL-13 + TNFα; control antibody at 0.53 nM [15]: 2840 pg/mL | TARC (pg/mL), A549 cells + IL-13 + TNFα; control antibody at 2.67 nM [15]: 2720 pg/mL | TARC (pg/mL), A549 cells + IL-13 + TNFα; control antibody at 2.7 nM (part 2, with hP4 4H12) [15]: 2790 pg/mL | TARC (pg/mL), A549 cells + IL-13 + TNFα; control antibody at 13.3 nM [15]: 2820 pg/mL | TARC (pg/mL), A549 cells + IL-13 + TNFα; control antibody at 13.3 nM (part 2, with hP4 4H12) [15]: 2870 pg/mL | TARC (pg/mL), A549 cells + IL-13 + TNFα; control antibody at 66.7 nM [15]: 2700 pg/mL | TARC (pg/mL), A549 cells + IL-13 + TNFα; control antibody at 66.7 nM (part 2, with hP4 4H12) [15]: 2920 pg/mL | VCAM-1 fluorescence intensity, HUVEC + IL-13 0.5 ng/mL + TNFα; control antibody at 0.0002 nM [15]: 347 | VCAM-1 fluorescence intensity, HUVEC + IL-13 0.5 ng/mL + TNFα; control antibody at 0.001 nM [15]: 369 | VCAM-1 fluorescence intensity, HUVEC + IL-13 0.5 ng/mL + TNFα; control antibody at 0.004 nM [15]: 373 | VCAM-1 fluorescence intensity, HUVEC + IL-13 0.5 ng/mL + TNFα; control antibody at 0.021 nM [15]: 369 | VCAM-1 fluorescence intensity, HUVEC + IL-13 0.5 ng/mL + TNFα; control antibody at 0.11 nM [15]: 340 | VCAM-1 fluorescence intensity, HUVEC + IL-13 0.5 ng/mL + TNFα; control antibody at 0.53 nM [15]: 302 | VCAM-1 fluorescence intensity, HUVEC + IL-13 0.5 ng/mL + TNFα; control antibody at 2.67 nM [15]: 354 | VCAM-1 fluorescence intensity, HUVEC + IL-13 0.5 ng/mL + TNFα; control antibody at 13.3 nM [15]: 341 | OD450 nm [16]: 0.07 | mean fluorescence intensity [17]: 17.1 | OD450 nm [18]: 0.07 | mean fluorescence intensity [19]: 82.7 | mean fluorescence intensity [20]: 81.3 | OD450 nm [21]: 0.09 | mean fluorescence intensity [22]: 77 | mean fluorescence intensity [23]: 27.7 | OD450 nm [24]: 0.09 | mean fluorescence intensity [25]: 79.3 | OD450 nm [26]: 0.07 and 0.05 | OD450 nm [27]: 0.1 | OD450 nm [28]: 0.06
